Measured values as given in US20220356210A1, “A SERIES OF INJECTABLE HYDROGELS SELF-ASSEMBLED FROM SHORT PEPTIDES FOR VARIOUS BIOMEDICAL APPLICATIONS” (Agency for Science, Technology and Research, priority 2019, published 2022).
No end group written: not given here.

Columns and labels:
[1] = test system: human dermal fibroblasts (HDFs); assay: In vitro cytotoxicity, MTT assay; type: cell-based; settings: 2000 μg/mL, 24 h
Experimental: (§1) 1000 μL of HDFs or keratinocytes (10^5 cells per mL) were seeded onto the 12-well Transwell plates (Corning). IIK12 (1%) with various contents of antimicrobial peptides were dissolved in water and incubated at 37° C. overnight and 100 μL of gels were then transferred to the inserts of the Transwell plate. 1 mL of fresh medium was added into the inserts. The plates were incubated for 24 h before proceeding to MTT assay. It is noted that cells without any treatment and Mupirocin (GSK) were used as controls. The data were expressed as mean and standard deviation of three replicates and the tests were repeated 3 times.

[2] = test system: human primary keratinocytes; assay: In vitro cytotoxicity, MTT assay; type: cell-based; settings: 24 h
Experimental: as §1

[3] = Gelation by vial tilting method; type: physicochemical
Experimental: The peptide powder was dissolved in water or other aqueous solutions at the required concentrations. Alternatively, the required salt may be added after the peptide aqueous solution is prepared. The hydrogel was formed by mixing the peptide aqueous solution and salt (if required). For example, the solution was vortexed and then incubated to form hydrogel. The hydrogel formed may be stored as formed, or may be dried, for example by freeze drying. Alternatively, the hydrogel may be formed as required. The gelation time was determined by the vial tilting method. […] Rheology experiments were performed at room temperature using a control-strain rheometer (ARES G2, TA instruments). The rheometer is equipped with two sensitive force transducers for torque ranging from 0.05 μN·m to 200 mN·m. The peptide powder was dissolved in water at concentrations ranging from 1.0 to 2.0 (w/v) %. The solution was vortexed and then incubated to form hydrogel. The gel was placed onto parallel-plate geometry (8 mm in diameter). The dynamic storage modulus (G′) and loss modulus (G″) were examined as a function of frequency from 1 to 100 rad/s. The measurements were carried out at a strain amplitude (y) to ensure the linearity of viscoelasticity. Flow sweep (viscosity changes as a function of shear rate) was also performed to study shear thinning properties of hydrogels.

[4] = Rheology, G′ and G″ at frequency of 1 Hz; type: physicochemical; settings: incubated at 37° C. overnight
Experimental: The gelation time was determined by the vial tilting method. […] Rheology experiments were performed at room temperature using a control-strain rheometer (ARES G2, TA instruments). The rheometer is equipped with two sensitive force transducers for torque ranging from 0.05 μN·m to 200 mN·m. […] The solution was vortexed and then incubated to form hydrogel. The gel was placed onto parallel-plate geometry (8 mm in diameter). The dynamic storage modulus (G′) and loss modulus (G″) were examined as a function of frequency from 1 to 100 rad/s. The measurements were carried out at a strain amplitude (y) to ensure the linearity of viscoelasticity. Flow sweep (viscosity changes as a function of shear rate) was also performed to study shear thinning properties of hydrogels.

[5] = Dynamic step strain amplitude test; type: physicochemical; settings: 2.0 (w/v) % in water
Source text: The reduction of viscosity was attributed to the disruption of physical cross-links between the peptide molecules upon the application of shear stress. In order for a peptide gel construct containing a drug and/or cell/s to be delivered by syringe, it is essential that the disrupted gel with low viscosity could rapidly recover back into a stiff gel when the shear stress terminates. The ability of the peptide hydrogels to recover was investigated using a dynamic step strain amplitude test, where strain of 0.5% and 100% were periodically applied on the peptide hydrogels. […] After subjected 30 s of continuous high strain, the strain was reduced to 0.5%. […] This reversibility of peptide hydrogel in the presence of DMEM was further evaluated under the same conditions. […] The G′ value is reduced remarkably by ˜2000 times to ˜1 Pa when subjected a high stain of 100%. […] A similar phenomenon was also observed for IIK12 hydrogel, where the storage moduli of IIK12 hydrogel increased with increasing peptide concentrations (Table 5). […] This rheological behavior of the peptide hydrogels offers a great advantage for use as an injectable matrix for delivery of therapeutics such as drugs and cells. The fast recovery kinetics can be explained by the fact that the physical cross-links of the gel network immediately recovered after the high strain terminated.

[6] = test system: C. albicans; assay: Antimicrobial activity of peptide hydrogels (OD and agar plating); type: cell-based; settings: control gel, IIK12 at 1%, no antimicrobial peptide
Experimental: (§2) Hydrogels for the antimicrobial assays were prepared in 96-well tissue culture plates (NUNC). Briefly, IIK12 (1%) with various contents of antimicrobial peptides was dissolved in water and vortexed. 50 μL of solution was transferred to the wells. Gelation occurred overnight at 37° C. The growth of microorganisms on hydrogels was measured using a broth dilution method. Briefly, 30 μL of microorganism suspension (3.5×10^5 CFU/mL) was introduced onto the hydrogels, and a 96-well plate and peptide hydrogel without antimicrobial peptides were used as controls. The optical density readings of bacterial solutions were monitored by measuring OD600 nm. The assay was performed in four replicates for each sample and the experiments were repeated at least three times. Antimicrobial activity was further tested through a spread plate method. Briefly, hydrogels were challenged with microorganism solution, at the end of treatment, microbial suspension on the hydrogel surface was withdrawn and diluted sequentially, and then plated on 1.5% LB agar plates. The plates were incubated for 24 h at 37° C. (48 h at room temperature for C. albicans). Microbial colonies were formed and counted. The experiments were performed in triplicate and were repeated three times.

[7] = test system: E. coli; assay: as above; type: cell-based; settings: control gel, IIK12 at 1%, no antimicrobial peptide
Experimental: as §2

[8] = test system: S. aureus; assay: as above; type: cell-based; settings: control gel, IIK12 at 1%, no antimicrobial peptide
Experimental: as §2

[9] = test system: S. aureus; assay: Killing kinetics test; type: cell-based; settings: 24 h of incubation
Experimental: The microbes were treated with peptide hydrogels as described above. At various time periods of treatment, the microbial samples were diluted for plating (LB Agar, 1st Base). Incubation conditions: 18 h, 37° C. for bacteria. The colony-forming units were counted after the incubation period. The experiment was repeated in independent settings three times.

[10] = test system: S. aureus; assay: Disk diffusion assay; type: cell-based; settings: hydrogel cast on inoculated agar, one day at 37° C.
Experimental: Antimicrobial activity was further tested through a disk diffusion assay. Briefly, microbial suspension (S. aureus, ATCC No. 6538) with 3.5×10^6 CFU/mL (40 μL) was spread on 1.5% LB agar plates. Disks (Sigma) were prepared to contain 50 μL of peptides with various concentrations by dripping 50 μL of peptides solutions onto a sterile disk. Disks were air-dried for several minutes before being placed onto different zones in the agar plates. Hydrogels (100 μL) were placed onto LB agar plates. The plates were incubated for 24 h at 37° C.

C/C(=C\C(=O)OCCCCCCCCC(=O)O)C[C@@H]1OC[C@H](C[C@@H]2O[C@H]2[C@@H](C)[C@H](C)O)[C@@H](O)[C@H]1O [Mupirocin, reference compound]
Cell viability [1]: more than 80%
Cell viability [2]: 80-90%

IRIKIEIEIRIK (IRIKIEIEIRIK-NH2) [IIK12]
Lowest concentration at which hydrogels self-assembled ([3]; aqueous solution): 0.6 (w/v) %
Gelation in DI water at 37° C. (via tilting) ([3]; peptide conc. 0.6, 1.0 %): Gel
G′ (storage modulus) ([4]; 0.6 wt %, H2O): 65 Pa
G″ (loss modulus) ([4]; 0.6 wt %, H2O): 7 Pa
G′ (storage modulus) ([4]; 0.8 wt %, H2O): 131 Pa
G″ (loss modulus) ([4]; 0.8 wt %, H2O): 24 Pa
G′ (storage modulus) ([4]; 1.0 wt %, DMEM): 1206 Pa
G″ (loss modulus) ([4]; 1.0 wt %, DMEM): 176 Pa
G′ (storage modulus) ([4]; 1.0 wt %, H2O): 279 Pa
G″ (loss modulus) ([4]; 1.0 wt %, H2O): 48 Pa
G′ (storage modulus) ([4]; 1.5 wt %, H2O): 598 Pa
G″ (loss modulus) ([4]; 1.5 wt %, H2O): 66 Pa
G′ (storage modulus) ([4]; 2.0 wt %, H2O): 865 Pa
G″ (loss modulus) ([4]; 2.0 wt %, H2O): 69 Pa
Rheological behavior in dynamic step strain amplitude measurement [5]: reversible rheological behavior
Killing of the microbes (OD measurement and agar plating) [6]: ineffective
Killing of the microbes (OD measurement and agar plating) [7]: ineffective
Killing of the microbes (OD measurement and agar plating) [8]: ineffective
Log (CFU) [9]: 9.28
S. aureus colony formation on agar in contact with gel [10]: ineffective
